Laboratory results taken from publication PMC2786168.
Positions count from the first letter of the chain named.

Legend:
RNase R R572K = target: T1, RNase R R572K (Escherichia coli, UniProt P21499 1-813, R572K); experiment: filter binding
T1 sequence: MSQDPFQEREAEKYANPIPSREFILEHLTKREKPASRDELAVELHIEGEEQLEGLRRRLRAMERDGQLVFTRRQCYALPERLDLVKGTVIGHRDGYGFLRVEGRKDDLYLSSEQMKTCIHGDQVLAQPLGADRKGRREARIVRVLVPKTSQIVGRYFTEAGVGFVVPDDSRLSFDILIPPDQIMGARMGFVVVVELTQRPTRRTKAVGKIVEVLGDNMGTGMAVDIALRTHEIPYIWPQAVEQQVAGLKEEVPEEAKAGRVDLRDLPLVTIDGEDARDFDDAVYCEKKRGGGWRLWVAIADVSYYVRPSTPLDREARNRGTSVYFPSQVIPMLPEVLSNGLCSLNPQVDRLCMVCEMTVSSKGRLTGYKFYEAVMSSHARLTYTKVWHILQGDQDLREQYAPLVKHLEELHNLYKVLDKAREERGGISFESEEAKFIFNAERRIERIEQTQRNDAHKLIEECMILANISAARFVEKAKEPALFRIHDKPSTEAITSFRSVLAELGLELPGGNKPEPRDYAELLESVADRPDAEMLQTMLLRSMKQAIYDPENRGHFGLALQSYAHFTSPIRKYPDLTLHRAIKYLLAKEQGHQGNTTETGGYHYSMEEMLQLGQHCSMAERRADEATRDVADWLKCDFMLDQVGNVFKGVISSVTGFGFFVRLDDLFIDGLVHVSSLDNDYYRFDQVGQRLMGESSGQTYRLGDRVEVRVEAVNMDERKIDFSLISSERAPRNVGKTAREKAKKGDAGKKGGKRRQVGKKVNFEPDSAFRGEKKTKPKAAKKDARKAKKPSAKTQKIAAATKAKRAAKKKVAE

RNase R wild-type = target: T2, RNase R wild-type (Escherichia coli, UniProt P21499 1-813); experiment: filter binding
T2 sequence: T1 sequence with K572R

AAAAAAAAAAAAAAAAA (ssRNA) [A17]
Kd (RNase R R572K): 0.5 ± 0.1 nM
Kd (RNase R wild-type): 0.8 ± 0.1 nM
